Consider one substance from US20230393135A1.

Test [1] deals with SARS-CoV-2 S protein trimer with the Δ69-70 Y453F mutations (present in the mink variant) (SARS-CoV-2) (UniProt P0DTC2).
In test [2] the target is SARS-CoV-2 S protein trimer with the K417N/E484K/N501Y mutations (present in the B.1.351 variant) (SARS-CoV-2) (UniProt P0DTC2).

Consider REGN10933 neutralizing antibody, for which the fold loss in IC80 activity in test [1] worked out at 67 fold; in test [2], 61 fold.
